Molecular target: human CD38 (human, UniProt P28907 1-300)
Test: cell-based or functional assay

B1: chimeric 38SB31 (antibody, V domains shown)
VH: DVKLVESGGGLVKPGGSLKLSCEASGFTFSSYTLSWVRQTPETRLEWVATISIGGRYTYYPDSVEGRFTISRDNAKNTLYLQMNSLKSEDTAMYYCTRDFNGYSDFWGQGTTLTVSS
VL: DTVMTQSHKFISTSVGDRVSITCKASQVVGSAVAWYQQKPGQSPKLLIYWASTRHTGVPDRFTGSGSGTDFTLTISNVQSEDLADYFCQQYNSYPYTFGGGTKLEIKR
CDC: specific viability of Daudi cells with 1.25 µg/mL or higher antibody and complement: 53%
